This passage reports Kd results from PMC7591920 (Nature Communications, 2020).

The experiment deals with T1, mouse TEAD4(210–427), as purified (SPR) (mouse, UniProt Q62296 210-427).
T1 construct: cDNA fused with a 6x His-tag and a 3C protease cleavage site in pOPIN S; No tag cleavage is told for the protein used in SPR; cleavage is told only for the crystallised complex; also called mTEAD4; source: E. coli BL21 DE3 RIL, purified (His Trap, SEC)
In words: SPR; GST-hTEAD1 and mTEAD4 covalently tethered (NHS/EDC) on CM5 chips, 2000–3000 RU; peptides as analytes, threefold dilutions, typically 30 µM top concentration; 10 mM HEPES, 150 mM NaCl, 0.05% Tween-20, pH 7.4, 0.3% DMSO, 20 °C; steady-state fit, 1:1 model. The settings on record: both partners purified. Background: Surface plasmon resonance follows binding to a sensor surface in real time, without labels.

T1 sequence (Q62296 210-427): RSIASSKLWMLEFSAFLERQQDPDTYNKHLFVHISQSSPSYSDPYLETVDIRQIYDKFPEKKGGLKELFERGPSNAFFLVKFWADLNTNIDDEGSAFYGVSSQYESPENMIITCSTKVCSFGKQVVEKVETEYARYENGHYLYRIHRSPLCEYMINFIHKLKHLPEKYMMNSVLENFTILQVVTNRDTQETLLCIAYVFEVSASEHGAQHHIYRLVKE

B1: VGL4(203–256), full-length VGL4-derived TEAD binding sequence (peptide 1) (peptide, UniProt Q80V24 203-256, looked up)
peptide: DPVVEEHFRRSLGKNYKEPEPAPNSVSITGSVDDHFAKALGDTWLQIKAAKDSA
notes: mouse and human VGL4 are said to be identical in this stretch; Made on Rink amide resin, so probably a C-terminal amide; source: synthetic peptide (Fmoc solid-phase synthesis, RP-HPLC purified)
As usually defined, the Kd is the concentration at which binding is half-saturated. A low value points to a tighter complex. B1 came in with a Kd of 2000 nM.
